Results taken from US20090226444A1 (MICROMET, published 2009).
Numbering of substitutions follows the chain as printed. Blank lines part the entries; values can stand above or below the binder they belong to.

Columns and labels:
[1] = molecular target: T1, soluble human CEA antigen (sCEA; Abcam, Ltd, Cambridge UK) (human, UniProt P06731 35-685, limits assumed); assay: not described (own data)
T1 construct: Bought soluble CEA; also called soluble CEA; immobilized CEA antigen
T1 sequence: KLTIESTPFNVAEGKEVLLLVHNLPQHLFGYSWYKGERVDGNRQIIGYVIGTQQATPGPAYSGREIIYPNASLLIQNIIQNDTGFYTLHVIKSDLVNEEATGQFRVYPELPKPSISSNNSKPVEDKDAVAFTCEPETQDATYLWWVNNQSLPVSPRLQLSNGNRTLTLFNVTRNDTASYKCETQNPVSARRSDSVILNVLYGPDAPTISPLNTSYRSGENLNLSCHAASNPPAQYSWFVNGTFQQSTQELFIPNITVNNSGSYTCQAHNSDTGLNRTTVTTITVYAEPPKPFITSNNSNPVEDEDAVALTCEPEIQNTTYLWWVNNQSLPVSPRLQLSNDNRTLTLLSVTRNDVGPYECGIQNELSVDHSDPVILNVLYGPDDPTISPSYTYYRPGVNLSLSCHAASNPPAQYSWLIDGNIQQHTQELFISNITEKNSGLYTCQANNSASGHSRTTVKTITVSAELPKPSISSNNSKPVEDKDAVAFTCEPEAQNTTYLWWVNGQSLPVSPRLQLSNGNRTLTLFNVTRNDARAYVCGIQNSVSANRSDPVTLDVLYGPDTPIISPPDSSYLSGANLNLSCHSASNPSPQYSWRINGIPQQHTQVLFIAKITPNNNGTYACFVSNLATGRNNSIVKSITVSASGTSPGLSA

[2] = molecular target: T2, human CEA (carcinoembryonic antigen-related cell adhesion molecule 5; CEACAM5), membrane-bound on cells (human, UniProt P06731 35-685); assay: cell-based or functional assay
T2 sequence: T1 sequence

[3] = molecular target: T1, soluble human CEA antigen (sCEA; Abcam, …); assay: cell-based or functional assay

B2: IgG1 A5, derived from scFv A5 (antibody, V domains shown)
VH: EVQLVESGGGVVQPGRSLRLSCAASGFTLSTYAMHWVRQAPGKGLEWVALISNDGSNKYYADSVKGRFTISRDNSKNTLYLQMNSLRAEDTAVYYCARDRGLRFYFDYWGQGTTVTVSS
VL: QAVLTQPASLSASPGASASLTCTLRRGINVGAYSIYWYQQKPGSPPQYLLRYKSDSDKQQGSGVSSRFSASKDASANAGILLISGLQSEDEADYYCMIWHSGASAVFGGGTKLTVLG
- ADCC EC50, sCEA 0 ug/ml [2]: 2.7 ng/mL
- ADCC EC50 in the presence of sCEA 1 ug/ml [2]: 4 ng/mL
- ADCC EC50 in the presence of sCEA 10 ug/ml [2]: 2.8 ng/mL
- Inhibitory factor (ADCC EC50 with 1 ug/ml sCEA divided by EC50 without sCEA) [3]: 1.5 fold
- Inhibitory factor (ADCC EC50 with 10 ug/ml sCEA divided by EC50 without sCEA) [3]: 1 fold

B3: IgG1 B9, derived from scFv B9 (antibody, V domains shown)
VH: EVQLVESGGGLVQPGRSLRLSCAASGFTVSSYWMHWVRQAPGKGLEWVGFIRNKANGGTTEYAASVKGRFTISRDDSKNTLYLQMNSLRAEDTAVYYCARDRGLRFYFDYWGQGTTVTVSS
VL: B2 VL
- ADCC EC50, sCEA 0 ug/ml [2]: 4.8 ng/mL
- ADCC EC50 in the presence of sCEA 1 ug/ml [2]: 45.3 ng/mL
- ADCC EC50 in the presence of sCEA 10 ug/ml [2]: 53.4 ng/mL
- Inhibitory factor (ADCC EC50 with 1 ug/ml sCEA divided by EC50 without sCEA) [3]: 9.4 fold
- Inhibitory factor (ADCC EC50 with 10 ug/ml sCEA divided by EC50 without sCEA) [3]: 11.1 fold

Further lines, results first:

- binding result [1]: binds
B1: murine monoclonal antibody A5B7 (antibody, V domains shown)
VH: EVQLVESGGGLVQPGGSLRLSCATSGFTFTDYYMNWVRQPPGKALEWLGFIGNKANGYTTEYSASVKGRFTISRDKSQSILYLQMNTLRAEDSATYYCTRDRGLRFYFDYWGQGTTVTVSS
VL: DIELTQSPAILSASPGEKVTMTCRASSSVTYIHWYQQKPGSSPKSWIYATSNLASGVPARFSGSGSGTSYSLTISRVEAEDAATYYCQHWSSKPPTFGGGTKLEIK
notes: The parental murine monoclonal; also called mAb A5B7

- ADCC EC50, sCEA 0 ug/ml [2]: 4.4 ng/mL
- ADCC EC50 in the presence of sCEA 1 ug/ml [2]: 14.7 ng/mL
- ADCC EC50 in the presence of sCEA 10 ug/ml [2]: 6.3 ng/mL
- Inhibitory factor (ADCC EC50 with 1 ug/ml sCEA divided by EC50 without sCEA) [3]: 3.3 fold
- Inhibitory factor (ADCC EC50 with 10 ug/ml sCEA divided by EC50 without sCEA) [3]: 1.4 fold
B4: IgG1 D8, derived from scFv D8 (antibody, V domains shown)
VH: B2 VH with A97T
VL: B2 VL
